{"source": "paper PMC13136903", "about": "“Zα and Zβ domains of ADAR1 and ZBP1 bind G-quadruplexes with nanomolar affinities, establishing Zβ as a G-quadruplex-specific domain”", "molecules": {"B1": {"name": "ALU-GQRNA (structured_RNA)", "RNA": "GGGAGGGCGGGAGGG"}, "B2": {"name": "TERRA-GQRNA (structured_RNA)", "RNA": "UUAGGGUUAGGGUUAGGGUUAGGG"}, "B3": {"name": "ALU-mutRNA (ssRNA)", "RNA": "CCGACCGCCCGACCG"}, "B4": {"name": "ssUUAGGG 6-mer (30 µM) (ssRNA)", "RNA": "UUAGGG"}, "B5": {"name": "GQ-UUAGGG 6-mer (100 µM) (structured_RNA)", "RNA": "UUAGGG"}, "B6": {"name": "TERRA-mutRNA (ssRNA)", "RNA": "UUACCGUUACCGUUACCGUUACCG"}}, "key": {"[1]": {"test_system": "GV2 Zα (giant virus Zα domain) (giant virus (metagenome))", "test": "MST", "settings": "20 mM NaPi pH 6.4, 100 mM KCl, 1 mM DTT, 0.5 mM EDTA (LiCl replaces KCl where noted); ITC 35 C; MST 25 C with 20 nM protein (labelling without DTT; competition …)"}, "ADAR1 Zα [2]": {"target": "T1, ADAR1 Zα (Homo sapiens, UniProt P55265 139-202)", "T1 sequence": "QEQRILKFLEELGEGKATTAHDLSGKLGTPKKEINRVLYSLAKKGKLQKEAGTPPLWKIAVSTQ", "test": "MST; 20 mM NaPi pH 6.4, 100 mM KCl, 1 mM DTT, 0.5 mM EDTA (LiCl replaces KCl where noted); ITC 35 C; MST 25 C with 20 nM protein (labelling without DTT); competition", "settings": "protein: recombinant, tags: N-terminal 6xHis, thrombin site, T7 tag"}, "ADAR1 Zβ [3]": {"target": "T2, ADAR1 Zβ (Homo sapiens, UniProt P55265 291-366)", "T2 sequence": "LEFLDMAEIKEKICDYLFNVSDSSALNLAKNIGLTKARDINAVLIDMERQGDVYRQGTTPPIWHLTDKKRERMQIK", "test": "MST; 20 mM NaPi pH 6.4, 100 mM KCl, 1 mM DTT, 0.5 mM EDTA (LiCl replaces KCl where noted); ITC 35 C; MST 25 C with 20 nM protein (labelling without DTT); competition", "settings": "protein: recombinant; tags: N-terminal 6xHis, thrombin site, T7 tag; parallel G4"}, "ADAR1 Zβ [4]": {"target": "T2, ADAR1 Zβ", "test": "ITC; 35 C; N=1.12; 20 mM NaPi pH 6.4, 100 mM KCl, 1 mM DTT, 0.5 mM EDTA (LiCl replaces KCl where noted); ITC 35 C; MST 25 C with 20 nM protein (labelling without DTT); competition", "settings": "protein: recombinant; tags: N-terminal 6xHis, thrombin site, T7 tag; parallel G4"}, "ADAR1 Zα [5]": {"target": "T1, ADAR1 Zα", "test": "ITC; 35 C; N=1.44; 20 mM NaPi pH 6.4, 100 mM KCl, 1 mM DTT, 0.5 mM EDTA (LiCl replaces KCl where noted); ITC 35 C; MST 25 C with 20 nM protein (labelling without DTT); competition", "settings": "protein: recombinant; tags: N-terminal 6xHis, thrombin site, T7 tag; chain copies: 2; parallel G4"}, "ZBP1 Zα1": {"target": "T3, ZBP1 Zα1 (Homo sapiens, UniProt Q9H171 1-70)", "T3 sequence": "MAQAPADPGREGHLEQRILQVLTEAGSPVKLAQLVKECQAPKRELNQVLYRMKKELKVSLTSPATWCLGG", "test": "NMR; significant peak disappearance; LLPS; 20 mM NaPi pH 6.4, 100 mM KCl, 1 mM DTT, 0.5 mM EDTA (LiCl replaces KCl where noted); ITC 35 C; MST 25 C with 20 nM protein (labelling without DTT); competition", "settings": "protein: recombinant; tags: N-terminal 6xHis, thrombin site, T7 tag; parallel G4"}, "ADAR1 Zβ [6]": {"target": "T2, ADAR1 Zβ", "test": "MST; ligand-depletion range, may not be exact; 20 mM NaPi pH 6.4, 100 mM KCl, 1 mM DTT, 0.5 mM EDTA (LiCl replaces KCl where noted); ITC 35 C; MST 25 C with 20 nM protein (labelling without DTT); competition", "settings": "protein: recombinant; tags: N-terminal 6xHis, thrombin site, T7 tag; parallel G4"}, "ADAR1 Zα [7]": {"target": "T1, ADAR1 Zα", "test": "NMR; extensive peak shifts; 20 mM NaPi pH 6.4, 100 mM KCl, 1 mM DTT, 0.5 mM EDTA (LiCl replaces KCl where noted); ITC 35 C; MST 25 C with 20 nM protein (labelling without DTT); competition", "settings": "protein: recombinant; tags: N-terminal 6xHis, thrombin site, T7 tag; no G4; transient structure"}, "ADAR1 Zα [8]": {"target": "T1, ADAR1 Zα", "test": "NMR; 30 µM RNA; CSPs similar to UUACCG at 100 µM; 20 mM NaPi pH 6.4, 100 mM KCl, 1 mM DTT, 0.5 mM EDTA (LiCl replaces KCl where noted); ITC 35 C; MST 25 C with 20 nM protein (labelling without DTT); competition", "settings": "protein: recombinant; tags: N-terminal 6xHis, thrombin site, T7 tag; predominantly single strand at 30 µM"}, "ADAR1 Zβ [9]": {"target": "T2, ADAR1 Zβ", "test": "NMR; 100 µM RNA; large CSP increase; 20 mM NaPi pH 6.4, 100 mM KCl, 1 mM DTT, 0.5 mM EDTA (LiCl replaces KCl where noted); ITC 35 C; MST 25 C with 20 nM protein (labelling without DTT); competition", "settings": "protein: recombinant; tags: N-terminal 6xHis, thrombin site, T7 tag"}, "ADAR1 Zα [10]": {"target": "T1, ADAR1 Zα", "test": "NMR; 100 µM RNA; CSPs similar to ssUUAGGG; 20 mM NaPi pH 6.4, 100 mM KCl, 1 mM DTT, 0.5 mM EDTA (LiCl replaces KCl where noted); ITC 35 C; MST 25 C with 20 nM protein (labelling without DTT); competition", "settings": "protein: recombinant; tags: N-terminal 6xHis, thrombin site, T7 tag; chain copies: 2"}}}
{"molecule": "GGGAGGGCGGGAGGG [ALU-GQRNA]", "values": [{"measurement": "Kd", "setting": "[1]", "result": 1000, "unit": "nM"}]}
{"molecule": "B1", "values": [{"measurement": "Kd", "setting": "ADAR1 Zα [2]; chain copies: 2, parallel G4", "result": "116 ± 69.3", "unit": "nM"}, {"measurement": "Kd", "setting": "ADAR1 Zβ [3]", "result": "336 ± 181", "unit": "nM"}, {"measurement": "Kd", "setting": "ADAR1 Zβ [4]", "result": "1810 ± 300", "unit": "nM"}, {"measurement": "Kd", "setting": "ADAR1 Zα [5]", "result": "430 ± 100", "unit": "nM"}, {"measurement": "binding result", "setting": "ZBP1 Zα1", "result": "binds"}]}
{"molecule": "B2", "values": [{"measurement": "Kd", "setting": "ADAR1 Zα [2]; chain copies: 2, parallel G4", "result": "19.3 ± 13.7", "unit": "nM"}, {"measurement": "Kd", "setting": "ADAR1 Zβ [6]", "result": "4.2 ± 2.2", "unit": "nM"}]}
{"molecule": "B3", "values": [{"measurement": "binding result", "setting": "ADAR1 Zα [7]", "result": "binds"}]}
{"molecule": "B4", "values": [{"measurement": "binding result", "setting": "ADAR1 Zα [8]", "result": "binds"}]}
{"molecule": "B5", "values": [{"measurement": "binding result", "setting": "ADAR1 Zβ [9]", "result": "binds"}, {"measurement": "binding result", "setting": "ADAR1 Zα [10]", "result": "binds"}]}
{"molecule": "B6", "values": [{"measurement": "Kd", "setting": "ADAR1 Zα [2]; no G4, transient structure", "result": "35.9 ± 8.9", "unit": "nM"}]}
